The results in this text go back to paper PMC2790542.

The test system of the data set is O=C(O)/C=C\Cl. Briefly: purified protein. Particulars: active site.

Consider “cis-3-chloroacrylic acid dehalogenase (cis-CaaD) (coryneform bacterium)”, for which the Km is 200 ± 15 µM, the turnover number (kcat) came to 5.9 ± 0.1 s⁻¹ and the specificity constant (kcat/Km) was found to be 29000 M⁻¹ s⁻¹.
